From IntAct's records for PubMed 25613572

B1: Chromo domain-containing protein rhino (Drosophila melanogaster (Fruit fly)), Q7JXA8 (parent)
chain: MSRNHQRPNLGLVDAPPNDHVEEYVVEKILGKRFVNGRPQVLVKWSGFPNENNTWEPLENVGNCMKLVSDFESEVFRLHRKAAAKSVGKSKSSPSSSGPLITENGPSSSKKTQQHSKSVQAKNTAGMSKMNQKKGKNIKKTAGKIKDIENYPKTQMPSTSQVSTDSTEVFDGNPSATTTNMIKSPRIQSLFSDLNLIEPTKDKDVGDTSLKTPPKSRRLIEFPQREDAPLSSKHVSPMLIRKESQPLQSSCTDDSDLGESSSSMSLPTVSSTSSEKSIKVTKSEPKTLGQIKFSSRSSDGGHAASSLGAPKEGDIGLDLSGSDSMDSEVESMRRCPRRKRKKTYPDWKFPEMTKPFGVNRGLDLDKILHCYQMNDDLFMFVTWKGCSSIDAVHINDIKEAYPLQIIKYFESLRIIVPK

Variants of: B1
Conditions: with h31_human H3C1, P68431

effect of a mutation on the interaction	Variant
disrupting interaction	MSRNHQRPNLGLVDAPPNDHVEEYVVEKILGKRFVNGRPQVLVKWSGAPNENNTWEPLENVGNCMKLVSDFESEVFRLHRKAAAKSVGKSKSSPSSSGPLITENGPSSSKKTQQHSKSVQAKNTAGMSKMNQKKGKNIKKTAGKIKDIENYPKTQMPSTSQVSTDSTEVFDGNPSATTTNMIKSPRIQSLFSDLNLIEPTKDKDVGDTSLKTPPKSRRLIEFPQREDAPLSSKHVSPMLIRKESQPLQSSCTDDSDLGESSSSMSLPTVSSTSSEKSIKVTKSEPKTLGQIKFSSRSSDGGHAASSLGAPKEGDIGLDLSGSDSMDSEVESMRRCPRRKRKKTYPDWKFPEMTKPFGVNRGLDLDKILHCYQMNDDLFMFVTWKGCSSIDAVHINDIKEAYPLQIIKYFESLRIIVPK [F48A]
disrupting interaction	MSRNHQRPNLGLVDAPPNDHVEEYVVEKILGKRFVNGRPQVLVKASGFPNENNTWEPLENVGNCMKLVSDFESEVFRLHRKAAAKSVGKSKSSPSSSGPLITENGPSSSKKTQQHSKSVQAKNTAGMSKMNQKKGKNIKKTAGKIKDIENYPKTQMPSTSQVSTDSTEVFDGNPSATTTNMIKSPRIQSLFSDLNLIEPTKDKDVGDTSLKTPPKSRRLIEFPQREDAPLSSKHVSPMLIRKESQPLQSSCTDDSDLGESSSSMSLPTVSSTSSEKSIKVTKSEPKTLGQIKFSSRSSDGGHAASSLGAPKEGDIGLDLSGSDSMDSEVESMRRCPRRKRKKTYPDWKFPEMTKPFGVNRGLDLDKILHCYQMNDDLFMFVTWKGCSSIDAVHINDIKEAYPLQIIKYFESLRIIVPK [W45A]
decreasing interaction strength	MSRNHQRPNLGLVDAPPNDHVEEYVVEKILGKRAVNGRPQVLVKWSGFPNENNTWEPLENVGNCMKLVSDFESEVARLHRKAAAKSVGKSKSSPSSSGPLITENGPSSSKKTQQHSKSVQAKNTAGMSKMNQKKGKNIKKTAGKIKDIENYPKTQMPSTSQVSTDSTEVFDGNPSATTTNMIKSPRIQSLFSDLNLIEPTKDKDVGDTSLKTPPKSRRLIEFPQREDAPLSSKHVSPMLIRKESQPLQSSCTDDSDLGESSSSMSLPTVSSTSSEKSIKVTKSEPKTLGQIKFSSRSSDGGHAASSLGAPKEGDIGLDLSGSDSMDSEVESMRRCPRRKRKKTYPDWKFPEMTKPFGVNRGLDLDKILHCYQMNDDLFMFVTWKGCSSIDAVHINDIKEAYPLQIIKYFESLRIIVPK [F34A;F76A]
